According to patent publication US20190154677:
Read-outs that look alike come from different tables or passages of the source.

Legend:
[1] = molecular target: Hepatitis B surface antigen (HBs Ag) (Hepatitis B virus) (UniProt P03141); conditions: magnetic bead pulldown with q-PCR, BD buffer, room temperature
[2] = molecular target: Hepatitis B surface antigen (HBs Ag) (Hepatitis B virus) (UniProt P03141); conditions: magnetic bead pulldown with q-PCR, BD buffer, room temperature; remark: listed apart in the source

Hepatitis B surface antigen (HBs Ag) (Hepatitis B virus), sequence (P03141 175-400): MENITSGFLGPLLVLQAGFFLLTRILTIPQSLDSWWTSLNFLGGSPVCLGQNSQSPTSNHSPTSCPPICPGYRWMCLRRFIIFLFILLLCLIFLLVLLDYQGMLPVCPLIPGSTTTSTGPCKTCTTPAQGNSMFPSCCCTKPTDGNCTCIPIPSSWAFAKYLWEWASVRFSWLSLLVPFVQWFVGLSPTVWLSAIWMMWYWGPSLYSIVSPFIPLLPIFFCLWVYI

Sequence	Kd [1] [nM]	Kd [2] [nM]
AGCAGCACAGAGGTCCCAACCGGAATCTGCACCTCGCGTGCTACCGTGAA [K2-4]	31.4	–
AGCAGCACAGAGGTCCTGCATCACGAAGCCTGGCAGCGTGCTACCGTGAA [MP-1]	–	28.3
